Data from patent US20240092836A1.
Bridges are numbered along the chain shown (N, C = ends). Primed or numbered codes have the meaning given here. Where no end group is shown, it is not given here. The star is where a group is joined. Biotin = O=C1N[C@H]2[C@H](CS[C@H]2CCCCC(=O)*)N1; PEG4 = NCCOCCOCCOCCOCCC(=O)O; PEG4′ = not defined here

Molecular target: Recombinant Human CTLA4-Fc chimera (R&D systems) (human) (UniProt P16410)
Assay: ELISA, signal over SA

Going from GGCLHPWLPIVSCHFCPR (peptide, not shown: large carriers; small tags and cut ends) [C4m#19-5th2w-NNS6-68] to GGCWHPVLPIRSGHFCSR (peptide, not shown: large carriers; small tags and cut ends) [C4m3127-4th-NNS6-95], the ELISA S/N(SA) falls from 4.6 to 3.4.

Going from GGCWHPVLPIRSDHFCCR (peptide, not shown: large carriers; small tags and cut ends) [C4m#19-5th2w-NNS6-41] to GGCSHPYLPIHSRHFCLS (peptide, not shown: large carriers; small tags and cut ends) [C4m3127-4th-NNS6-70], the ELISA S/N(SA) rises from 3.1 to 4.6.

Going from GGCCHPWLPIRSVHFCPF (peptide, not shown: large carriers; small tags and cut ends) [C4m#19-5th2w-NNS6-61] to GGCFHPFLPIRSHHFCML (peptide, not shown: large carriers; small tags and cut ends) [C4m#19-5th4w-NN6-40], the ELISA S/N(SA) falls from 4.3 to 4.

Going from GGCWHPVLPIRSIHFCGC (peptide, not shown: large carriers; small tags and cut ends) [C4m3127-4th-NNS6-37] to GGCFHPFLPIQSRHFCCR (peptide, not shown: large carriers; small tags and cut ends) [C4m#19-5th2w-NNS6-93], the ELISA S/N(SA) falls from 3.5 to 3.4.

Going from GGCLHPYLPIFSVHFCAL (peptide, not shown: large carriers; small tags and cut ends) [C4m#19-5th2w-NNS6-87] to GGCMHPYLPIRSFHFCSC (peptide, not shown: large carriers; small tags and cut ends) [C4m#19-5th4w-NN6-49], the ELISA S/N(SA) falls from 4.5 to 4.

Compared with GGCLHPFLPILSLHFCPF (peptide, not shown: large carriers; small tags and cut ends) [C4m3127-4th-NNS6-20], GGCMHPSLPIWSWHFCPH (peptide, not shown: large carriers; small tags and cut ends) [C4m3127-4th-NNS6-19] is lower in ELISA S/N(SA): 4.4 for the first, 4.1 for the second.

Compared with GGCLHPFLPIVSWHFCPC (peptide, not shown: large carriers; small tags and cut ends) [C4m#19-5th2w-NNS6-80], GGCRHPFLPIFSVHFCPF (peptide, not shown: large carriers; small tags and cut ends) [C4m#19-5th2w-NNS6-66] is higher in ELISA S/N(SA): 3.6 for the first, 4.4 for the second.

Work on GGCRHPFLPIFSWHFCAV (peptide, not shown: large carriers; small tags and cut ends) [C4m#19-5th4w-NN6-80] yielded an ELISA S/N(SA) of 3.8.

Molecular target: Recombinant Human CTLA4-Fc chimera (R&D systems) (human) (UniProt P16410)
Assay: BLItz (BLI), biotinylated CTLA-4 on SA chip, MBP fusion as analyte

For GGCMHPFLLVVSHHFCGG (peptide, not shown: large carriers; small tags and cut ends) [H12SSI-Ctla4-3-02 (MBP fusion)], the Kd was 3.88 µM.

GGCMHPFLLVVSHHFCGG (peptide, not shown: large carriers; small tags and cut ends) [H12SSI-Ctla4-3-02 (MBP fusion)] was tested, and the koff was 0.0123 s⁻¹.

In the case of GGCMHPFLLVVSHHFCGG (peptide, not shown: large carriers; small tags and cut ends) [H12SSI-Ctla4-3-02 (MBP fusion)], the kon is reported as 3180 M⁻¹ s⁻¹.

Molecular target: Recombinant Human CTLA4-Fc chimera (R&D systems) (human) (UniProt P16410)
Assay: BLItz (BLI), synthetic biotinylated peptides

Work on {Biotin-PEG4}-KCMHPFLPIVSHHFCER (disulfide 2-15) [biotinylated clone #19: Biotin-PEG4-…] yielded a fold higher affinity than the original clone (H12SSI-Ctla4-3-02) of 3 fold.

Molecular target: Recombinant Human CTLA4-Fc chimera (R&D systems) (human) (UniProt P16410)
Assay: ELISA, purified MBP fusion on immobilised CTLA-4

GGCMHPFLQVVSHHFCGG (peptide, not shown: large carriers; small tags and cut ends) [C4-302mat-2-100-4] and GGCMHPFLLVVSHHFCGG (peptide, not shown: large carriers; small tags and cut ends) [H12SSI-Ctla4-3-02 (MBP fusion)] are within 1.5-fold of each other in EC50: 4180 nM for the first, 3920 nM for the second.

First: GGCRHPFLPIVSRHFCRG (peptide, not shown: large carriers; small tags and cut ends) [C4-302mat-3-1-45]
Second: GGCKHPYLPVASHHFCRG (peptide, not shown: large carriers; small tags and cut ends) [C4-302mat-3-1-10]
The EC50 of the first is 2.3-fold lower: 300 nM for the first, 703 nM for the second. The first is the more potent here.

First: GGCMHPFLPVTSHHFCGG (peptide, not shown: large carriers; small tags and cut ends) [C4-302mat-2-1-3]
Second: GGCMHPYLPVISHHFCGR (peptide, not shown: large carriers; small tags and cut ends) [C4-302mat-3-100-12]
The EC50 of the first is 3.8-fold higher: 826 nM for the first, 217 nM for the second.

First: GGCMHPFLPIVSHHFCGS (peptide, not shown: large carriers; small tags and cut ends) [C4-302mat-2-100-27]
Second: GGCMHPFLPVASHHFCAG (peptide, not shown: large carriers; small tags and cut ends) [C4-302mat-3-100-27]
The EC50 of the first is 1.9-fold lower: 189 nM for the first, 352 nM for the second. The first is the more potent here.

Going from GGCMHPFLPIASLHFCGR (peptide, not shown: large carriers; small tags and cut ends) [C4-302mat-3-1-23] to GGCMHPFLRVVSHHFCGG (peptide, not shown: large carriers; small tags and cut ends) [C4-302mat-1-1-37], the EC50 rises from 160 nM to 1490 nM (9.3-fold). The first is the more potent here.

Compared with GGCMHPFLPVASHHFCGG (peptide, not shown: large carriers; small tags and cut ends) [C4-302mat-1-1-35], GGCMHPFLPVVSHHFCGA (peptide, not shown: large carriers; small tags and cut ends) [C4-302mat-3-1-48] is 1.5-fold lower in EC50: 288 nM for the first, 187 nM for the second.

GGCMHPFLPVASHHFCGR (peptide, not shown: large carriers; small tags and cut ends) [C4-302mat-3-1-22] and GGCMHPFLPILSHHFCAG (peptide, not shown: large carriers; small tags and cut ends) [C4-302mat-3-1-32] are within 1.5-fold of each other in EC50: 222 nM for the first, 322 nM for the second.

GGCMHPFLPVVSHHFCGG (peptide, not shown: large carriers; small tags and cut ends) [C4-302mat-1-1-24] and GGCVHPFLPVVSHHFCRG (peptide, not shown: large carriers; small tags and cut ends) [C4-302mat-3-100-20] are within 1.5-fold of each other in EC50: 1040 nM for the first, 889 nM for the second.

Going from GGCLHPFLPIVSHHFCGR (peptide, not shown: large carriers; small tags and cut ends) [C4-302mat-3-100-44] to GGCLHPFLPLVSHHFCGG (peptide, not shown: large carriers; small tags and cut ends) [C4-302mat-2-1-38], the EC50 rises from 82 nM to 867 nM (11-fold). The first is the more potent here.

GGCKHPFLPVVSHHFCGG (peptide, not shown: large carriers; small tags and cut ends) [C4-302mat-3-100-9] and GGCMHPFLQTVSHHFCGG (peptide, not shown: large carriers; small tags and cut ends) [C4-302mat-3-1-35] are within 1.5-fold of each other in EC50: 832 nM for the first, 668 nM for the second.

Compared with GGCMHPFLPVVSRHFCGR (peptide, not shown: large carriers; small tags and cut ends) [C4-302mat-3-1-12], GGCMHPFLPVVSHHFCRG (peptide, not shown: large carriers; small tags and cut ends) [C4-302mat-2-100-18] is 4.3-fold higher in EC50: 85 nM for the first, 369 nM for the second. The first is the more potent here.

Compared with GGCMHPFLPVVSHHFCGR (peptide, not shown: large carriers; small tags and cut ends) [C4-302mat-3-100-37], GSCMHPFLPVASRHFCGR (peptide, not shown: large carriers; small tags and cut ends) [C4-302mat-3-1-31] is 1.5-fold higher in EC50: 225 nM for the first, 342 nM for the second.

GGCLHPFLPVVSHHFCGD (peptide, not shown: large carriers; small tags and cut ends) [C4-302mat-2-1-2] and GGCMHPFLPVVSRHFCGG (peptide, not shown: large carriers; small tags and cut ends) [C4-302mat-3-1-5] are within 1.5-fold of each other in EC50: 474 nM for the first, 674 nM for the second.

Binder GGCMHPYLPVISHHFCGG (peptide, not shown: large carriers; small tags and cut ends) [C4-302mat-2-1-27] has an EC50 of 1640 nM.

Molecular target: Recombinant Human CTLA4-Fc chimera (R&D systems) (human) (UniProt P16410)
Assay: BLItz (BLI), biotinylated peptide on SA chip, CTLA-4 protein as analyte

First: {Biotin-PEG4}-KCMHPFLPIVSHHFCER (disulfide 2-15) [biotinylated clone #19: Biotin-PEG4-…]
Second: {Biotin-PEG4′}-KCMHPFLLVVSHHFC (disulfide 2-15) [biotinylated H12SSI-Ctla4-3-02: Biotin-PEG4-…]
The Kd of the first is 3.1-fold lower: 61.8 nM for the first, 191 nM for the second.

First: {Biotin-PEG4}-KCMHPFLPIVSHHFCER (disulfide 2-15) [biotinylated clone #19: Biotin-PEG4-…]
Second: {Biotin-PEG4′}-KCMHPFLLVVSHHFC (disulfide 2-15) [biotinylated H12SSI-Ctla4-3-02: Biotin-PEG4-…]
The koff of the first is 1.7-fold lower: 0.0128 s⁻¹ for the first, 0.022 s⁻¹ for the second.

Compared with {Biotin-PEG4}-KCMHPFLPIVSHHFCER (disulfide 2-15) [biotinylated clone #19: Biotin-PEG4-…], {Biotin-PEG4′}-KCMHPFLLVVSHHFC (disulfide 2-15) [biotinylated H12SSI-Ctla4-3-02: Biotin-PEG4-…] is 1.8-fold lower in kon: 208000 M⁻¹ s⁻¹ for the first, 115000 M⁻¹ s⁻¹ for the second.

Molecular target: Recombinant Human CTLA4-Fc chimera (R&D systems) (human) (UniProt P16410)
Assay: ELISA EC50, purified MBP fusions

GGCLHPFLPIVSHHFCGR (peptide, not shown: large carriers; small tags and cut ends) [C4-302mat-3-100-44] and GGCMHPFLPVVSRHFCGR (peptide, not shown: large carriers; small tags and cut ends) [C4-302mat-3-1-12] are the same in fold improvement of affinity over the original clone: 50 fold for the first, 50 fold for the second.
